# Assays:
# [1] = molecular target: gp41-inter (HIV-1; HIV-1 clade A isolate 92UG037.8); experiment: fluorescence anisotropy/polarization, FITC-labeled 2F5 Fab held at 50 nM, gp41-inter titrated; the concentration read is that of gp41-inter
# [2] = molecular target: gp41-inter (HIV-1; HIV-1 clade A isolate 92UG037.8); experiment: fluorescence anisotropy/polarization; FITC-4E10 Fab, gp41-inter titrated
# [3] = molecular target: gp41-inter (HIV-1; HIV-1 clade A isolate 92UG037.8); experiment: fluorescence anisotropy/polarization, FITC-labeled 4E10 Fab, gp41-inter titrated; the concentration read is that of gp41-inter
Substance,EC50 (read off the curve) [1] [nM],Kd [2] [nM],EC50 (read off the curve) [3] [nM]
2F5 Fab,10,,
4E10 Fab,,23,20

# Source: patent US20250177373A1
